From IntAct's records for PubMed 9468140

B1: Retinoblastoma-associated protein (Homo sapiens), P06400 (parent)
chain: MPPKTPRKTAATAAAAAAEPPAPPPPPPPEEDPEQDSGPEDLPLVRLEFEETEEPDFTALCQKLKIPDHVRERAWLTWEKVSSVDGVLGGYIQKKKELWGICIFIAAVDLDEMSFTFTELQKNIEISVHKFFNLLKEIDTSTKVDNAMSRLLKKYDVLFALFSKLERTCELIYLTQPSSSISTEINSALVLKVSWITFLLAKGEVLQMEDDLVISFQLMLCVLDYFIKLSPPMLLKEPYKTAVIPINGSPRTPRRGQNRSARIAKQLENDTRIIEVLCKEHECNIDEVKNVYFKNFIPFMNSLGLVTSNGLPEVENLSKRYEEIYLKNKDLDARLFLDHDKTLQTDSIDSFETQRTPRKSNLDEEVNVIPPHTPVRTVMNTIQQLMMILNSASDQPSENLISYFNNCTVNPKESILKRVKDIGYIFKEKFAKAVGQGCVEIGSQRYKLGVRLYYRVMESMLKSEEERLSIQNFSKLLNDNIFHMSLLACALEVVMATYSRSTSQNLDSGTDLSFPWILNVLNLKAFDFYKVIESFIKAEGNLTREMIKHLERCEHRIMESLAWLSDSPLFDLIKQSKDREGPTDHLESACPLNLPLQNNHTAADMYLSPVRSPKKKGSTTRVNSTANAETQATSAFQTQKPLKSTSLSLFYKKVYRLAYLRLNTLCERLLSEHPELEHIIWTLFQHTLQNEYELMRDRHLDQIMMCSMYGICKVKNIDLKFKIIVTAYKDLPHAVQETFKRVLIKEEEYDSIIVFYNSVFMQRLKTNILQYASTRPPTLSPIPHIPRSPYKFPSSPLRIPGGNIYISPLKSPYKISEGLPTPTKMTPRSRILVSIGESFGTSEKFQKINQMVCNSDRVLKRSAEGSNPPKPLKKLRFDIEGSDEADGSKHLPGESKFQQKLAEMTSTRTRMQKQKMNDSMDTSNKEEK

Variants of: B1
Details: with hdac1_human HDAC1, Q13547
hdac1_human HDAC1, Q13547, sequence (Q13547 whole entry): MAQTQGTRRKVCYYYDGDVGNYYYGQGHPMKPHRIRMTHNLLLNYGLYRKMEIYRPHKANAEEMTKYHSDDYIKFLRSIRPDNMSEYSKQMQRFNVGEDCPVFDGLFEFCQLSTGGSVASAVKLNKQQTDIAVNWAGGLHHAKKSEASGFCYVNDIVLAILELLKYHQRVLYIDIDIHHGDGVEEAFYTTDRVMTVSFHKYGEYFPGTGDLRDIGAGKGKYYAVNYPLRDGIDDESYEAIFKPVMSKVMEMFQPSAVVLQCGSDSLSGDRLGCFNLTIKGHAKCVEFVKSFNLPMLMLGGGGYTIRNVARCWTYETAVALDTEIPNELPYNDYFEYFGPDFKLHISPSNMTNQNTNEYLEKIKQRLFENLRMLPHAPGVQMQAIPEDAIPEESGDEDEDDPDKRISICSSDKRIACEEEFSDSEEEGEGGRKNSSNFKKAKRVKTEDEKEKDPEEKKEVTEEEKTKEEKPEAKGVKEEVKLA

Row | effect of a mutation on the interaction | Variant
1 | disrupting interaction | C706F
